Experimental data as given in patent US20230192896A1 (BIOVERATIV THERAPEUTICS, published 2023).

B1: BIIB-12-1291 (antibody, V domains shown)
VH: QVQLVQSGAEVKKPGASVKVSCKASGYTFTSYYMHWVRQAPGQGLEWMGIINPSGGSTSYAQKFQGRVTMTRDTSTSTVYMELSSLRSEDTAVYYCARSRRMWVGYFDLWGRGTLVTVSS
VL: EIVLTQSPATLSLSPGERATLSCRASQSVSSYLAWYQQKPGQAPRLLIYDASNRATGIPARFSGSGSGTDFTLTISSLEPEDFAVYYCQQRLNLPLTFGGGTKVEIK
notes: IgG
B2: BIIB-12-1297 (antibody, V domains shown)
VH: QVQLVESGGGVVQPGRSLRLSCAASGFTFSSYGMHWVRQAPGKGLEWVAVISYDGSNKYYADSVKGRFTISRDNSKNTLYLQMNSLRAEDTAVYYCARSGGQTHRRSMDVWGQGTTVTVSS
VL: EIVLTQSPATLSLSPGERATLSCRASQSVSRYLAWYQQKPGQAPRLLIYDASNRATGIPARFSGSGSGTDFTLTISSLEPEDFAVYYCQQGNNWPPTFGGGTKVEIK
notes: IgG
B3: BIIB-12-1292 (antibody, V domains shown)
VH: QVQLVQSGAEVKKPGASVKVSCKASGYTFTSYYIHWVRQAPGQGLEWMGIINPSGGSTSYAQKFQGRVTMTRDTSTSTVYMELSSLRSEDTAVYYCARDPGRRQSSGFDYWGQGTLVTVSS
VL: EIVMTQSPATLSLSPGERATLSCRASQSVSSYLAWYQQKPGQAPRLLIYDSSNRATGIPARFSGSGSGTDFTLTISSLEPEDFAVYYCQQRLNFPFTFGGGTKVEIK
notes: IgG
B4: BIIB-12-1289 (antibody, V domains shown)
VH: QVQLVQSGAEVKKPGASVKVSCKASGYTFTSYYMHWVRQAPGQGLEWMGIINPGGGSTSYAQKFQGRVTMTRDTSTSTVYMELSSLRSEDTAVYYCARGPPRTYATGSHNWFDPWGQGTLVTVSS
VL: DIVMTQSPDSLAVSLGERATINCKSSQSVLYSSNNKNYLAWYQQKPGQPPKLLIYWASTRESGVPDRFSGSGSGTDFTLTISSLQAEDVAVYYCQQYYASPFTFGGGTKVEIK
notes: IgG
B5: BIIB-12-1288 (antibody, V domains shown)
VH: QVQLVQSGAEVKKPGASVKVSCKASGYTFTSYYMHWVRQAPGQGLEWMGIINPSGGSTSYAQKFQGRVTMTRDTSTSTVYMELSSLRSEDTAVYYCARGGANDYGSSSRWWYFDLWGRGTLVTVSS
VL: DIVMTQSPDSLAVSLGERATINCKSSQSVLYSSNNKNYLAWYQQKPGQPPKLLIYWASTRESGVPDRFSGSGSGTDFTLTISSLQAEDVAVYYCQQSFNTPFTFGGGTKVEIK
notes: IgG
B6: BIIB-12-937 (antibody, V domains shown)
VH: QVQLVQSGAEVKKPGASVKVSCKASGYTFTSYYMHWVRQAPGQGLEWMGIINPSGGSTSYAQKFQGRVTMTRDTSTSTVYMELSSLRSEDTAVYYCARPTRMLRSYGMDVWGQGTTVTVSS
VL: not shown
notes: IgG
B7: BIIB-12-1295 (antibody, V domains shown)
VH: QVQLVQSGAEVKKPGASVKVSCKASGYTFTSYYMVWVRQAPGQGLEWMGIINPSGGSTSYAQKFQGRVTMTRDTSTSTVYMELSSLRSEDTAVYYCARVGGATTGKIGYGMDVWGQGTTVTVSS
VL: DIQMTQSPSSVSASVGDRVTITCRASQGISSWLAWYQQKPGKAPKLLIYAASNLQSGVPSRFSGSGSGTDFTLTISSLQPEDFATYYCQQAISLPITFGGGTKVEIK
notes: IgG
B8: BIIB-12-1298 (antibody, V domains shown)
VH: QVQLVESGGGVVQPGRSLRLSCAASGFTFSSYGMHWVRQAPGKGLEWVAVISYDGSNKYYADSVKGRFTISRDNSKNTLYLQMNSLRAEDTAVYYCAKGGSDRRVGSWGQGTLVTVSS
VL: DIQMTQSPSSVSASVGDRVTITCRASQGISSWLAWYQQKPGKAPKLLIYAASSLQSGVPSRFSGSGSGTDFTLTISSLQPEDFATYYCQQTNSLPITFGGGTKVEIK
notes: IgG
B9: BIIB-12-1316 (antibody, V domains shown)
VH: QVQLVESGGGVVQPGRSLRLSCAASGFTFSSYGMHWVRQAPGKGLEWVAVISYDGSNKYYADSVKGRFTISRDNSKNTLYLQMNSLRAEDTAVYYCAKSGQYRAFDIWGQGTMVTVSS
VL: DIQMTQSPSSVSASVGDRVTITCRASQGISSWLAWYQQKPGKAPKLLIYAASSLQSGVPSRFSGSGSGTDFTLTISSLQPEDFATYYCQQINNFPPTFGGGTKVEIK
notes: IgG

Molecular target: T1, non-activatable Factor X (FXn) (Homo sapiens (Human), UniProt P00742 41-488, single biotin on the C-terminal BioTag)
T1 construct: also called BIIB-FX-015
Test: BLI; class meaning: paragraph 285

Binding result, binds:
B1, B2, B3, B4, B5, B6, B7, B8, B9
